{"source": "patent US20240245796A1", "about": "(PROFOUNDBIO US, published 2024)", "key": {"[1]": {"target": "T1, human FOLR3 extracellular domain linked to His tag (human, UniProt P41439 23-245, limits assumed)", "T1 construct": "extracellular domain; Antigen in solution in BLI; also called Hu-FRg; not shown: His tag", "T1 sequence (P41439 23-245 limits assumed)": "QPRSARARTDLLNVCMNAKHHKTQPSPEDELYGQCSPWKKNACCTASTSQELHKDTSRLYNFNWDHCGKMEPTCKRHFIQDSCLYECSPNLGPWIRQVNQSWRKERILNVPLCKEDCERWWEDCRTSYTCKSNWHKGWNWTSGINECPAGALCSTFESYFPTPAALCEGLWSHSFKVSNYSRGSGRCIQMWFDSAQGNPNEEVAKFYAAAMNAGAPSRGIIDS", "assay": "BLI, global 1:1 fit (31.3 nM row); all responses below quantification"}, "[2]": {"target": "T2, cynomolgus FOLR1 protein, His Tag (ACRO F01-C52H8) (cynomolgus, UniProt A0A2K5U044 25-233)", "T2 construct": "Bought protein coated on ELISA plates; also called Cynomolgus/Rhesus macaque FOLR1, Protein, His Tag; not shown: His tag", "T2 sequence (A0A2K5U044 entry or part of it)": "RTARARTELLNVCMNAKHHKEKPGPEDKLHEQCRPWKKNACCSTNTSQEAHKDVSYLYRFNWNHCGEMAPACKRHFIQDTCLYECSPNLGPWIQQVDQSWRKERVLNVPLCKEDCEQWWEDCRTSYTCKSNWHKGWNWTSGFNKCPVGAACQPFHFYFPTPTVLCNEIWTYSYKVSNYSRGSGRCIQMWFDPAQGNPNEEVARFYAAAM", "assay": "ELISA, coated cyno FOLR1-His, supernatant 25x"}, "[3]": {"target": "T3, human FOLR2 extracellular domain linked to His tag (human, UniProt P14207 17-230, limits assumed)", "T3 construct": "extracellular domain; Antigen in solution in BLI; also called Hu-FRb; not shown: His tag", "T3 sequence (P14207 17-230 limits assumed)": "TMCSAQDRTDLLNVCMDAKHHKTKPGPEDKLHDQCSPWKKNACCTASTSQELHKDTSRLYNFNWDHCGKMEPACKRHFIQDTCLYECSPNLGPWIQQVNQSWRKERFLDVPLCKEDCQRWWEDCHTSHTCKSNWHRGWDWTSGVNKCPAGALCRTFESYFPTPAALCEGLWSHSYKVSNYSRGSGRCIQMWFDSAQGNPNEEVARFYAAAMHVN", "assay": "BLI, global 1:1 fit (500 nM row)"}, "[4]": {"target": "T4, human FOLR1 extracellular domain linked to His tag (human, UniProt P15328 25-233, limits assumed)", "T4 construct": "extracellular domain; It may be the same product as m13; also called Hu-FRα; Hu-Ag; not shown: His tag", "T4 sequence (P15328 25-233 limits assumed)": "as the sequence (A0A2K5U044 entry or part of it) above, with T2I, R4W, K37R, P146A, Y171H counted along it", "assay": "BLI, global 1:1 fit (500 nM row)"}, "[5]": {"target": "T2, cynomolgus FOLR1 protein, His Tag (ACRO …)", "assay": "ELISA, coated cyno FOLR1-His, supernatant 5x"}, "[6]": {"target": "T5, human FOLR1 protein, His Tag (ACRO FO1-H52H1) (human, UniProt P15328 25-233)", "T5 construct": "Bought protein coated on ELISA plates; not shown: His tag", "T5 sequence (P15328 25-233 limits assumed)": "as the sequence (A0A2K5U044 entry or part of it) above, with T2I, R4W, K37R, P146A, Y171H counted along it", "assay": "ELISA, coated hFOLR1-His, supernatant 5x"}, "[7]": {"target": "T5, human FOLR1 protein, His Tag (ACRO …)", "assay": "ELISA, coated hFOLR1-His, HEK293 supernatant"}, "[8]": {"target": "T6, cynomolgus monkey FOLR1 extracellular domain linked to His tag (cynomolgus monkey, UniProt A0A2K5U044 25-233)", "T6 construct": "extracellular domain; Antigen in solution in BLI; It may be the same product as m14; also called Cyno-Ag; not shown: His tag", "T6 sequence (A0A2K5U044 entry or part of it)": "as the sequence (A0A2K5U044 entry or part of it) above", "assay": "BLI, Ag 62.5 nM over Ab on anti-hIgG Fc tip"}, "[9]": {"target": "T4, human FOLR1 extracellular domain linked …", "assay": "BLI, Ag 62.5 nM over Ab on anti-hIgG Fc tip"}, "[10]": {"target": "T4, human FOLR1 extracellular domain linked …", "assay": "BLI, global 1:1 fit (500 nM row); Table 12 run (species FOLR α panel, Hu-Ag)"}, "[11]": {"target": "T5, human FOLR1 protein, His Tag (ACRO …)", "assay": "ELISA, coated hFOLR1-His, supernatant 25x"}, "[12]": {"target": "T6, cynomolgus monkey FOLR1 extracellular …", "assay": "BLI, Ag 31.3 nM over Ab on anti-hIgG Fc tip"}, "[13]": {"target": "T4, human FOLR1 extracellular domain linked …", "assay": "BLI, Ag 31.3 nM over Ab on anti-hIgG Fc tip"}, "[14]": {"target": "T7, mouse FOLR1 extracellular domain linked to His tag (mouse, UniProt P35846 25-232, limits assumed)", "T7 construct": "extracellular domain; Antigen in solution in BLI; also called Mouse-Ag; not shown: His tag", "T7 sequence (P35846 25-232 limits assumed)": "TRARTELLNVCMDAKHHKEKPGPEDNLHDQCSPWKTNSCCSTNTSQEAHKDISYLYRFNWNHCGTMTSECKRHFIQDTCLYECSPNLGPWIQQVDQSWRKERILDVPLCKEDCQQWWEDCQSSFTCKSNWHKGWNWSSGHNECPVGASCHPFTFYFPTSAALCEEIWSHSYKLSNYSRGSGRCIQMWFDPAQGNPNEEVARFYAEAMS", "assay": "BLI, global 1:1 fit (500 nM row); only the 500 nM response quantifiable; only the 500 nM response quantifiable; R^2 0.6807"}, "[15]": {"target": "T5, human FOLR1 protein, His Tag (ACRO …)", "assay": "ratio of OD450 on hFOLR1 to OD450 on anti-human IgG Fc"}, "[16]": {"target": "T7, mouse FOLR1 extracellular domain linked …", "assay": "BLI, global 1:1 fit (500 nM row); only the 500 nM response quantifiable"}, "[17]": {"target": "T8, rat FOLR1 extracellular domain linked to His tag (rat)", "T8 construct": "extracellular domain; Antigen in solution in BLI; also called Rat-Ag", "assay": "BLI, Ag 7.82 nM; * = below range of quantification"}, "[18]": {"target": "T1, human FOLR3 extracellular domain linked …", "assay": "BLI, global 1:1 fit (250 nM row); all responses below quantification"}, "[19]": {"target": "T2, cynomolgus FOLR1 protein, His Tag (ACRO …)", "assay": "ELISA, coated cyno FOLR1-His, supernatant 1x"}, "[20]": {"target": "T8, rat FOLR1 extracellular domain linked …", "assay": "BLI, global 1:1 fit (31.3 nM row); all responses below quantification"}, "[21]": {"target": "T6, cynomolgus monkey FOLR1 extracellular …", "assay": "BLI, global 1:1 fit (31.3 nM row)"}, "[22]": {"target": "T4, human FOLR1 extracellular domain linked …", "assay": "BLI, global 1:1 fit (31.3 nM row)"}, "[23]": {"target": "T4, human FOLR1 extracellular domain linked …", "assay": "BLI, global 1:1 fit (500 nM row); Table 11 run (FOLR family panel, Hu-FRα)"}}}
{"binder": "F131 (antibody, V domains shown, also called clone F131; F131 mAb) VH: EVQLLESGGGVVQPGRSLRLSCAASGFTFSSYGMHWVRQAPGKGLEWVAVISYDGSNKYYADSVKGRFTISRANSKNTLYLQMNSLRAEDTAVYYCARPRAYYGAYGSSFDYWGQGTQVTVSS VL: EIVMTQSPSSVSASVGDRVAITCRASQGISSWLAWYQQKPGKAPKLLIYAASSLQSGVPSRFSGSGSGTDFTLTISSLQPEDFATYYCQQSYSTPLTFGGGTKVDIK", "values": [{"measurement": "koff", "setting": "[1]", "value": 0.217, "unit": "s⁻¹"}, {"measurement": "kon", "setting": "[1]", "value": 1660, "unit": "M⁻¹ s⁻¹"}, {"measurement": "OD450", "setting": "[2]", "value": 1.09, "unit": "OD450"}, {"measurement": "Kd", "setting": "[3]", "value": 142, "unit": "nM"}, {"measurement": "koff", "setting": "[3]", "value": 0.0784, "unit": "s⁻¹"}, {"measurement": "kon", "setting": "[3]", "value": 552000, "unit": "M⁻¹ s⁻¹"}, {"measurement": "koff", "setting": "[4]", "value": 0.0012, "unit": "s⁻¹"}, {"measurement": "kon", "setting": "[4]", "value": 226000, "unit": "M⁻¹ s⁻¹"}, {"measurement": "OD450", "setting": "[5]", "value": 1.27, "unit": "OD450"}, {"measurement": "OD450", "setting": "[6]", "value": 1.52, "unit": "OD450"}, {"measurement": "OD450", "setting": "[7]", "value": 2.35, "unit": "OD450"}, {"measurement": "Response", "setting": "[8]", "value": 0.14}, {"measurement": "Response", "setting": "[9]", "value": 0.12}, {"measurement": "Kd", "setting": "[10]", "value": 1.53, "unit": "nM"}, {"measurement": "OD450", "setting": "[11]", "value": 1.38, "unit": "OD450"}, {"measurement": "Response", "setting": "[12]", "value": 0.084}, {"measurement": "Response", "setting": "[13]", "value": 0.0869}, {"measurement": "Kd", "setting": "[14]", "value": 2960, "unit": "nM"}, {"measurement": "Target binding/IgG level", "setting": "[15]", "value": 1.02}, {"measurement": "koff", "setting": "[16]", "value": 0.301, "unit": "s⁻¹"}, {"measurement": "kon", "setting": "[16]", "value": 102000, "unit": "M⁻¹ s⁻¹"}, {"measurement": "Response", "setting": "[17]", "value": -0.00563}, {"measurement": "koff", "setting": "[18]", "value": 0.217, "unit": "s⁻¹"}, {"measurement": "kon", "setting": "[18]", "value": 1660, "unit": "M⁻¹ s⁻¹"}, {"measurement": "OD450", "setting": "[19]", "value": 1.2, "unit": "OD450"}, {"measurement": "koff", "setting": "[20]", "value": 1.03, "unit": "s⁻¹"}, {"measurement": "kon", "setting": "[20]", "value": 5490, "unit": "M⁻¹ s⁻¹"}, {"measurement": "Kd", "setting": "[21]", "value": 8.15, "unit": "nM"}, {"measurement": "koff", "setting": "[21]", "value": 0.00157, "unit": "s⁻¹"}, {"measurement": "kon", "setting": "[21]", "value": 193000, "unit": "M⁻¹ s⁻¹"}, {"measurement": "Kd", "setting": "[22]", "value": 1.53, "unit": "nM"}, {"measurement": "koff", "setting": "[22]", "value": 0.000338, "unit": "s⁻¹"}, {"measurement": "kon", "setting": "[22]", "value": 221000, "unit": "M⁻¹ s⁻¹"}, {"measurement": "Kd", "setting": "[23]", "value": 5.3, "unit": "nM"}]}
{"binder": "F131-LD038 (antibody, V domains shown, drug-linker LD038 (PB038, maleimide-PEG unit-Val-Cit-PAB-exatecan) on cysteines freed by TCEP reduction; positions not given, Antibody-drug conjugate of F131 (IgG1) with LD038; also called anti-huFOLR-1 conjugate F131-LD038; F131-038) VH: EVQLLESGGGVVQPGRSLRLSCAASGFTFSSYGMHWVRQAPGKGLEWVAVISYDGSNKYYADSVKGRFTISRANSKNTLYLQMNSLRAEDTAVYYCARPRAYYGAYGSSFDYWGQGTQVTVSS VL: EIVMTQSPSSVSASVGDRVAITCRASQGISSWLAWYQQKPGKAPKLLIYAASSLQSGVPSRFSGSGSGTDFTLTISSLQPEDFATYYCQQSYSTPLTFGGGTKVDIK", "values": [{"measurement": "koff", "setting": "[1]", "value": 0.233, "unit": "s⁻¹"}, {"measurement": "Kd", "setting": "[3]", "value": 84.4, "unit": "nM"}, {"measurement": "koff", "setting": "[3]", "value": 0.0813, "unit": "s⁻¹"}, {"measurement": "kon", "setting": "[3]", "value": 963000, "unit": "M⁻¹ s⁻¹"}, {"measurement": "Kd", "setting": "[4]", "value": 4.79, "unit": "nM"}, {"measurement": "koff", "setting": "[4]", "value": 0.00121, "unit": "s⁻¹"}, {"measurement": "kon", "setting": "[4]", "value": 252000, "unit": "M⁻¹ s⁻¹"}, {"measurement": "Response", "setting": "[8]", "value": 0.121}, {"measurement": "Response", "setting": "[9]", "value": 0.129}, {"measurement": "Response", "setting": "[12]", "value": 0.0702}, {"measurement": "Response", "setting": "[13]", "value": 0.0866}, {"measurement": "Kd", "setting": "[16]", "value": 2870, "unit": "nM"}, {"measurement": "koff", "setting": "[16]", "value": 0.266, "unit": "s⁻¹"}, {"measurement": "kon", "setting": "[16]", "value": 92600, "unit": "M⁻¹ s⁻¹"}, {"measurement": "Response", "setting": "[17]", "value": -0.00438}, {"measurement": "koff", "setting": "[18]", "value": 0.233, "unit": "s⁻¹"}, {"measurement": "koff", "setting": "[20]", "value": 0.224, "unit": "s⁻¹"}, {"measurement": "kon", "setting": "[20]", "value": "2.64e+06", "unit": "M⁻¹ s⁻¹"}, {"measurement": "Kd", "setting": "[21]", "value": 8.82, "unit": "nM"}, {"measurement": "koff", "setting": "[21]", "value": 0.0016, "unit": "s⁻¹"}, {"measurement": "kon", "setting": "[21]", "value": 181000, "unit": "M⁻¹ s⁻¹"}, {"measurement": "Kd", "setting": "[22]", "value": 4.8, "unit": "nM"}, {"measurement": "koff", "setting": "[22]", "value": 0.00107, "unit": "s⁻¹"}, {"measurement": "kon", "setting": "[22]", "value": 224000, "unit": "M⁻¹ s⁻¹"}]}
